Read-outs that look alike come from different tables or passages of the source. Each block holds one molecule with its values, some of them ahead of it.
How the values were obtained:
[1] = target: CEACAM5/CEACAM6; assay: cell-based or functional assay
[2] = target: CEACAM6 (NCA-90) on cells (human) (UniProt P40199); assay: cell-based or functional assay
[3] = target: T1, carcinoembryonic antigen (CEA) (human, UniProt P06731 35-685); assay: 125I-CEA radioimmunoassay
T1 construct: also called CEACAM5; CD66e
T1 sequence (looked up): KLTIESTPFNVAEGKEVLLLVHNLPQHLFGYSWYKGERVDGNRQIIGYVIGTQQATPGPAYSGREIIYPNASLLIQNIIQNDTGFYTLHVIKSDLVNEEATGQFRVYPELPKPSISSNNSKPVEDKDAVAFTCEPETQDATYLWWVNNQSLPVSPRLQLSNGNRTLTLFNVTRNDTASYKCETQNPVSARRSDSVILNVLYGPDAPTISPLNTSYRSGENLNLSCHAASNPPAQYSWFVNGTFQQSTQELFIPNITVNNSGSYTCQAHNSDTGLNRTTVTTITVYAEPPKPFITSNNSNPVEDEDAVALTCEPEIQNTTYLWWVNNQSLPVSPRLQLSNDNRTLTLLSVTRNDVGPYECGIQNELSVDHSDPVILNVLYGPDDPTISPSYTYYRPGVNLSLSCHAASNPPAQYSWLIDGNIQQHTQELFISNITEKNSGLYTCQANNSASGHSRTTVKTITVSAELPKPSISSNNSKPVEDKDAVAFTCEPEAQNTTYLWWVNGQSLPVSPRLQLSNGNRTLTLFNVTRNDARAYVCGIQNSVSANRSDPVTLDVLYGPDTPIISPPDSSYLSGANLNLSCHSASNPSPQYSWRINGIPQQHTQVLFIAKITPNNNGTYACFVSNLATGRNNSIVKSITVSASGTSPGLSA

[4] = target: T1, carcinoembryonic antigen (CEA); assay: radioiodinated MAb (100 ng/ml) with increasing CEA; free versus bound antibody by HPLC sizing gel
[5] = target: T1, carcinoembryonic antigen (CEA); assay: competitive binding assay on CEA; unlabeled competitor varied against HRP-labeled murine MN-15
[6] = target: CEACAM5/CEACAM6; assay: cell-based or functional assay; remark: listed apart in the source
[7] = target: T2, NCA-95 on HeLa cells (UniProt P31997 35-320, limits assumed); assay: indirect flow cytometry on HeLa-CGM6/1 transfectants
T2 construct: whole, on cells; also called HeLa-CGM6/1
T2 sequence (looked up): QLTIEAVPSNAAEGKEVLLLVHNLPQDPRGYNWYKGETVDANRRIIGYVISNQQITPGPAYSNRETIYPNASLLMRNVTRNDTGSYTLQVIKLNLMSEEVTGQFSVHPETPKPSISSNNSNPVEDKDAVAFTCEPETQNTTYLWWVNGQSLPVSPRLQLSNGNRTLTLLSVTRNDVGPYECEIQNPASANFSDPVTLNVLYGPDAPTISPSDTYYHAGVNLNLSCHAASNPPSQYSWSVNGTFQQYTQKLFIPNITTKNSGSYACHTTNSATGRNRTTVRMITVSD
Method: The reacitivty of antibodies was tested by flow cytometry with a Becton-Dickinson FACSCAN®. The biotinylated second antibody was directed against mouse IgG and was detected by a streptavidin/phycoerythrin conjugate. Tests were carried out with antibodies at 1/50 dilution of 1 mg/ml stocks.
The antibodies MN-3 and MN-15 were tested for recognition of HeLa cells transfected with cDNA coding for CEA (HeLa-CEA2), NCA-90 (HeLa-KNC6/S44) and NCA-95 (HeLa-CGM6/1). As a negative control, HeLa cells transfected with the plasmid pSV2-Neo (control HeLa cells, HeLa-NeoA) were used. In addition to the antibodies MN-3 and MN-15, three control antibodies were included: […]

Molecule: MN-3 Fab′
adhesion-inhibition of MCF-7, HT-29, BT-20 and Moser cells to endothelial cells [1]: 49 to 58%
reduction of cell invasion, BXPC3, collagen-based invasion assay [2]: 0%
reduction of cell invasion, CaPAN-1, collagen-based invasion assay [2]: 55%
reduction of cell invasion, LS174T, collagen-based invasion assay [2]: 3%
reduction of cell invasion, MCF-7, collagen-based invasion assay [2]: 47%
reduction of cell invasion, ZR75-30, collagen-based invasion assay [2]: 59%

Molecule: NP-4 antibody
percent of radioiodinated CEA bound [3]: < 50%
CEA concentration for 50% complexation of the antibody [4]: 1 to 2 µg/mL

B3: chimeric MN-15 antibody (antibody, V domains shown)
VH: EVRLVESGGGLVQGPGSLRLSCAASGFALTDYYMSWVRQSPGKTLEWLGFIANKANGHTTDYSPSVKGRFTISRDNSQTILYLQMNTLRTEDSATYYCARDMGIRWNFDVWGQGTTVTVSS
VL: DIQLTQSPAIMSASPGEKVTMTCSASSRVSYIHWYQQKSGTSPKRWIYGTSTLASGVPARFSGSGSGTSYSLTISSMEAEDAATYYCQQWSYNPPTFGAGTKLELKR
IC50 (read off the curve) [5]: ~5 nM

B4: murine MN-15 antibody (antibody, mouse IgG1, V domains shown)
VH: EVRLVESGGGLVQGPGSLRLSCAASGFALTDYYMSWVRQSPGKTLEWLGFIANKANGHTTDYSPSVKGRFTISRDNSQTILYLQMNTLRTEDSATYYCARDMGIRWNFDVWGQGTTVTVSS
VL: DIQLTQSPAIMSASPGEKVTMTCSASSRVSYIHWYQQKSGTSPKRWIYGTSTLASGVPARFSGSGSGTSYSLTISSMEAEDAATYYCQQWSYNPPTFGAGTKLELKR
notes: also called mMN-15; MN-15 IgG
decrease of adhesion of CaPAN-1 cells to fibronectin [6]: 47%
decrease of adhesion of MCF-7 cells to fibronectin [6]: 29%
decrease of adhesion of MDA-468 cells to fibronectin [6]: 51%
binding result [7]: binds
IC50 (read off the curve) [5]: ~5 nM

Second part, the molecule after the results:

IC50 (read off the curve) [5]: ~5 nM
B1: humanized MN-15 antibody (antibody, V domains shown)
VH: QVQLVESGGGVVQPGRSLRLSCSSSGFALTDYYMSWVRQAPGKGLEWLGFIANKANGHTTDYSPSVKGRFTISRDNSKNTLFLQMDSLRPEDTGVYFCARDMGIRWNFDVWGQGTPVTVSS
VL: DIQLTQSPSSLSASVGDRVTMTCSASSRVSYIHWYQQKPGKAPKRWIYGTSTLASGVPARFSGSGSGTDFTFTISSLQPEDIATYYCQQWSYNPPTFGQGTKVEIKR
notes: Humanized variable regions (REI VK and KOL VH frameworks) cloned alongside human IgG1 constant region genes; also called hMN-15

adhesion-inhibition of MCF-7, HT-29, BT-20 and Moser cells to endothelial cells [6]: 49 to 58%
B2: MN-15 Fab′ (Fab, V domains shown)
VL: DIQLTQSPAIMSASPGEKVTMTCSASSRVSYIHWYQQKSGTSPKRWIYGTSTLASGVPARFSGSGSGTSYSLTISSMEAEDAATYYCQQWSYNPPTFGAGTKLELKR
VH: EVRLVESGGGLVQGPGSLRLSCAASGFALTDYYMSWVRQSPGKTLEWLGFIANKANGHTTDYSPSVKGRFTISRDNSQTILYLQMNTLRTEDSATYYCARDMGIRWNFDVWGQGTTVTVSS
